{
  "source": "paper PMC7332344",
  "target": "Rhodobacter sphaeroides TSPO A139T mutant (Rhodobacter sphaeroides) (UniProt Q9RFC8)",
  "assay": "native MS",
  "data": [
    {"substance": "Rhodobacter sphaeroides TSPO A139T mutant (from UniProt Q9RFC8 1-157) (natural protein)", "values": [
      {"measurement": "stoichiometry N", "result": 2}
    ]}
  ]
}
